Measured values published in patent publication US20250388669A1 (published 2025).

T1: B7H3 (human, UniProt Q5ZPR3 29-466, limits assumed)
T1 sequence (looked up): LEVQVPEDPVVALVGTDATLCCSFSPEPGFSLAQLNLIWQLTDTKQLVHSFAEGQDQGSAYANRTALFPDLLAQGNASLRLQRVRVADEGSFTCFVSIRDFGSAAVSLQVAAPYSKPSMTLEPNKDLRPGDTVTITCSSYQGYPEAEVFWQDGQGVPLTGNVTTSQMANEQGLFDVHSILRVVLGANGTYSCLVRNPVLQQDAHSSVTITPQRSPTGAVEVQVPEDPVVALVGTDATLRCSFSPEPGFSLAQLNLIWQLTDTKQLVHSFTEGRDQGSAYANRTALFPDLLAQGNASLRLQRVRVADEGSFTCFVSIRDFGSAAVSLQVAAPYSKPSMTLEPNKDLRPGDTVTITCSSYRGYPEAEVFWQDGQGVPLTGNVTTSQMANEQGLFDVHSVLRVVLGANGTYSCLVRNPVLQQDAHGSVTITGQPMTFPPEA

T2: B7H3 (human, UniProt Q5ZPR3 29-466, limits assumed)
T2 construct: Tumor associated antigen; also called huB7H3
T2 sequence (looked up): T1 sequence (looked up)

B1: Ly2385 (other)
chain 1: QVQLVQSGAEVKKPGASVKVSCKASGYTFTSYVMHWVRQKPGQGLEWIGYINPYNEGTESTDKFKGRATMTSDKSTSTVYMELSSLRSEDTAVYYCASIYYGYEGTYFGVWGQGTLVTVSSASTKGPSVFPLAPSSKSTSGGTAALGCLVKDYFPEPVTVSWNSGALTSGVHTFPAVLQSSGLYSLSSVVTVPSSSLGTQTYICNVNHKPSNTKVDKKVEPKSCGGSEVQLVESGGGLVQPGGSLRLSCAASGFTFSTYAMNWVRQAPGKGLEWVGRIRSKYNNYATYYADSVKGRFTISRDDSKNSLYLQMNSLKTEDTAVYYCVRHGNFGNSYVSWFAYWGQGTLVTVSSGGGGSDKTHTCPPCPAPEAAGPSVFLFPPKPKDTLMISRTPEVTCVVVDVSHEDPEVKFNWYVDGVEVHNAKTKPREEQYNSTYRVVSVLTVLHQDWLNGKEYKCKVSNKALPAPIEKTISKAKGQPREPQVYTLPPSREEMTKNQVSLWCLVKGFYPSDIAVEWESNGQPENNYKTTPPVLDSDGSFFLYSKLTVDKSRWQQGNVFSCSVMHEALHNHYTQKSLSLSPGGGGGSGGGGSGGGGSGGGGSQVQLVQSGAEVKKPGASVKVSCKASGYTFAGFEMHWVRQAPGQGLEWMGAIDPKTGGTDYNQKFKDRVTMTRDTSISTAYMELSRLRSDDTAVYYCARDLGYFDVWGQGTLVTVSS
chain 2: QVQLVQSGAEVKKPGASVKVSCKASGYTFTSYVMHWVRQKPGQGLEWIGYINPYNEGTESTDKFKGRATMTSDKSTSTVYMELSSLRSEDTAVYYCASIYYGYEGTYFGVWGQGTLVTVSSASTKGPSVFPLAPSSKSTSGGTAALGCLVKDYFPEPVTVSWNSGALTSGVHTFPAVLQSSGLYSLSSVVTVPSSSLGTQTYICNVNHKPSNTKVDKKVEPKSCGGSQAVVTQEPSLTVSPGGTVTLTCRSSTGAVTTSNYANWVQQKPGQAPRGLIGGTNKRAPWTPARFSGSLLGGKAALTITGAQAEDEADYYCALWYSNLWVFGGGTKLTVLGGGGSDKTHTCPPCPAPEAAGPSVFLFPPKPKDTLMISRTPEVTCVVVDVSHEDPEVKFNWYVDGVEVHNAKTKPREEQYNSTYRVVSVLTVLHQDWLNGKEYKCKVSNKALPAPIEKTISKAKGQPREPQVYTLPPSREEMTKNQVSLSCAVKGFYPSDIAVEWESNGQPENNYKTTPPVLDSDGSFFLVSKLTVDKSRWQQGNVFSCSVMHEALHNRFTQKSLSLSPGGGGGSGGGGSGGGGSGGGGSDIQMTQSPSSLSASVGDRVTITCRASQDIRSNLNWYQQKPGGAVKLLIYYTSRLHSGVPSRFSGSGSGTDYTLTISSLQPEDFATYFCQQSEKLPRTFGGGTKVEIR
light: EIVLTQSPATLSLSPGERATLSCRASSSVSYMHWYQQKPGQAPRPWIYATSNLASGIPARFSGSRSGTDYTLTISSLEPEDFAVYYCQQWSSNTLTFGGGTKVEIKRTVAAPSVFIFPPSDEQLKSGTASVVCLLNNFYPREAKVQWKVDNALQSGNSQESVTEQDSKDSTYSLSSTLTLSKADYEKHKVYACEVTHQGLSSPVTKSFNRGEC
notes: Tri-specific antibody: B7H3 Fabs, central CD3 Fv, terminal CD137 Fv; Flexible linker is G2S
B2: Ly2428 (bispecific antibody)
chain 1: QVQLVQSGAEVKKPGASVKVSCKASGYTFTSYVMHWVRQKPGQGLEWIGYINPYNEGTESTDKFKGRATMTSDKSTSTVYMELSSLRSEDTAVYYCASIYYGYEGTYFGVWGQGTLVTVSSASTKGPSVFPLAPSSKSTSGGTAALGCLVKDYFPEPVTVSWNSGALTSGVHTFPAVLQSSGLYSLSSVVTVPSSSLGTQTYICNVNHKPSNTKVDKKVEPKSCGGGGSGGGGSGGGGSGGGGSEVQLVESGGGLVQPGGSLRLSCAASGFTFTNYGLHWVRQAPGKGLEWVSSISPSGGVTYYRDSVKGRFTISRDNSKNTLYLQMNSLRAEDTAVYYCAKPFLGWGGANWIAHWGQGTLVTVSSGGGGSDKTHTCPPCPAPEAAGPSVFLFPPKPKDTLMISRTPEVTCVVVDVSHEDPEVKFNWYVDGVEVHNAKTKPREEQYNSTYRVVSVLTVLHQDWLNGKEYKCKVSNKALPAPIEKTISKAKGQPREPQVYTLPPSREEMTKNQVSLWCLVKGFYPSDIAVEWESNGQPENNYKTTPPVLDSDGSFFLYSKLTVDKSRWQQGNVFSCSVMHEALHNHYTQKSLSLSPG
chain 2: QVQLVQSGAEVKKPGASVKVSCKASGYTFTSYVMHWVRQKPGQGLEWIGYINPYNEGTESTDKFKGRATMTSDKSTSTVYMELSSLRSEDTAVYYCASIYYGYEGTYFGVWGQGTLVTVSSASTKGPSVFPLAPSSKSTSGGTAALGCLVKDYFPEPVTVSWNSGALTSGVHTFPAVLQSSGLYSLSSVVTVPSSSLGTQTYICNVNHKPSNTKVDKKVEPKSCGGGGSGGGGSGGGGSGGGGSDIQMTQSPSSLSASVGDRVTITCLASEDISNDLAWYQQKPGKAPKLLIYFVDRLLDGVPSRFSGSGSGTDFTLTISSLQPEDFATYYCQQSYKYPPTFGQGTKLEIKGGGGSDKTHTCPPCPAPEAAGPSVFLFPPKPKDTLMISRTPEVTCVVVDVSHEDPEVKFNWYVDGVEVHNAKTKPREEQYNSTYRVVSVLTVLHQDWLNGKEYKCKVSNKALPAPIEKTISKAKGQPREPQVYTLPPSREEMTKNQVSLSCAVKGFYPSDIAVEWESNGQPENNYKTTPPVLDSDGSFFLVSKLTVDKSRWQQGNVFSCSVMHEALHNRFTQKSLSLSPG
light: B1 light
notes: B7H3/CD40: two B7H3 Fabs, central CD40 Fv (TM559)
B3: Ly2424 (bispecific antibody, human IgG1, kappa)
chain 1: not shown
chain 2: QVQLVQSGAEVKKPGASVKVSCKASGYTFTSYVMHWVRQKPGQGLEWIGYINPYNEGTESTDKFKGRATMTSDKSTSTVYMELSSLRSEDTAVYYCASIYYGYEGTYFGVWGQGTLVTVSSASTKGPSVFPLAPSSKSTSGGTAALGCLVKDYFPEPVTVSWNSGALTSGVHTFPAVLQSSGLYSLSSVVTVPSSSLGTQTYICNVNHKPSNTKVDKKVEPKSCDKTHTCPPCPAPEAAGPSVFLFPPKPKDTLMISRTPEVTCVVVDVSHEDPEVKFNWYVDGVEVHNAKTKPREEQYNSTYRVVSVLTVLHQDWLNGKEYKCKVSNKALPAPIEKTISKAKGQPREPQVYTLPPSREEMTKNQVSLSCAVKGFYPSDIAVEWESNGQPENNYKTTPPVLDSDGSFFLVSKLTVDKSRWQQGNVFSCSVMHEALHNRFTQKSLSLSPGGGGGSGGGGSGGGGSGGGGSDIQMTQSPSSVSASVGDRVTITCRASQGIYSWLAWYQQKPGKAPNLLIYTASTLQSGVPSRFSGSGSGTDFTLTISSLQPEDFATYYCQQANIFPLTFGGGTKVEIK
light: B1 light
notes: B7H3/CD40: two B7H3 Fabs, terminal CD40 Fv (TM383)
B4: Ly1965 (bispecific antibody)
chain 1: QVQLVQSGAEVKKPGASVKVSCKASGYTFTSYVMHWVRQKPGQGLEWIGYINPYNEGTESTDKFKGRATMTSDKSTSTVYMELSSLRSEDTAVYYCASIYYGYEGTYFGVWGQGTLVTVSSASTKGPSVFPLAPSSKSTSGGTAALGCLVKDYFPEPVTVSWNSGALTSGVHTFPAVLQSSGLYSLSSVVTVPSSSLGTQTYICNVNHKPSNTKVDKKVEPKSCGGGGSGGGGSGGGGSGGGGSEVQLVESGGGLVQPGGSLRLSCAASGFTFSTYAMNWVRQAPGKGLEWVGRIRSKYNNYATYYADSVKGRFTISRDDSKNSLYLQMNSLKTEDTAVYYCVRHGNFGNSYVSWFAYWGQGTLVTVSSGGGGSDKTHTCPPCPAPEAAGPSVFLFPPKPKDTLMISRTPEVTCVVVDVSHEDPEVKFNWYVDGVEVHNAKTKPREEQYNSTYRVVSVLTVLHQDWLNGKEYKCKVSNKALPAPIEKTISKAKGQPREPQVYTLPPSREEMTKNQVSLWCLVKGFYPSDIAVEWESNGQPENNYKTTPPVLDSDGSFFLYSKLTVDKSRWQQGNVFSCSVMHEALHNHYTQKSLSLSPG
chain 2: QVQLVQSGAEVKKPGASVKVSCKASGYTFTSYVMHWVRQKPGQGLEWIGYINPYNEGTESTDKFKGRATMTSDKSTSTVYMELSSLRSEDTAVYYCASIYYGYEGTYFGVWGQGTLVTVSSASTKGPSVFPLAPSSKSTSGGTAALGCLVKDYFPEPVTVSWNSGALTSGVHTFPAVLQSSGLYSLSSVVTVPSSSLGTQTYICNVNHKPSNTKVDKKVEPKSCGGGGSGGGGSGGGGSGGGGSQAVVTQEPSLTVSPGGTVTLTCRSSTGAVTTSNYANWVQQKPGQAPRGLIGGTNKRAPWTPARFSGSLLGGKAALTITGAQAEDEADYYCALWYSNLWVFGGGTKLTVLGGGGSDKTHTCPPCPAPEAAGPSVFLFPPKPKDTLMISRTPEVTCVVVDVSHEDPEVKFNWYVDGVEVHNAKTKPREEQYNSTYRVVSVLTVLHQDWLNGKEYKCKVSNKALPAPIEKTISKAKGQPREPQVYTLPPSREEMTKNQVSLSCAVKGFYPSDIAVEWESNGQPENNYKTTPPVLDSDGSFFLVSKLTVDKSRWQQGNVFSCSVMHEALHNRFTQKSLSLSPG
light: B1 light
notes: B7H3/CD3: two B7H3 Fabs, central CD3 Fv
B5: Ly2279 (bispecific antibody)
chain 1: not shown
chain 2: QVQLVQSGAEVKKPGASVKVSCKASGYTFTSYVMHWVRQKPGQGLEWIGYINPYNEGTESTDKFKGRATMTSDKSTSTVYMELSSLRSEDTAVYYCASIYYGYEGTYFGVWGQGTLVTVSSASTKGPSVFPLAPSSKSTSGGTAALGCLVKDYFPEPVTVSWNSGALTSGVHTFPAVLQSSGLYSLSSVVTVPSSSLGTQTYICNVNHKPSNTKVDKKVEPKSCGGGGSGGGGSGGGGSGGGGSDIQMTQSPSSVSASVGDRVTITCRASQGIYSWLAWYQQKPGKAPNLLIYTASTLQSGVPSRFSGSGSGTDFTLTISSLQPEDFATYYCQQANIFPLTFGGGTKVEIKGGGGSDKTHTCPPCPAPEAAGPSVFLFPPKPKDTLMISRTPEVTCVVVDVSHEDPEVKFNWYVDGVEVHNAKTKPREEQYNSTYRVVSVLTVLHQDWLNGKEYKCKVSNKALPAPIEKTISKAKGQPREPQVYTLPPSREEMTKNQVSLSCAVKGFYPSDIAVEWESNGQPENNYKTTPPVLDSDGSFFLVSKLTVDKSRWQQGNVFSCSVMHEALHNRFTQKSLSLSPG
light: B1 light
notes: B7H3/CD40: two B7H3 Fabs, central CD40 Fv (TM383)

Experiments:
B7H3 [1] = target: T1, B7H3; assay: ELISA or FCM (Example 2)
B7H3 [2] = target: T2, B7H3; assay: FCM or ELISA

| Binder | binding result (B7H3 [1]) | binding result (B7H3 [2]) |
| --- | --- | --- |
| B1 | binds |  |
| B2 |  | binds |
| B3 |  | binds |
| B4 |  | binds |
| B5 |  | binds |
